Source: PMC8292379

Target: Human mitochondrial chaperonin mHsp60 (human), P10809
Test: cryo-EM structure; ~9 mg/ml mHsp60 on Quantifoil holey carbon grids, Titan Krios 300 kV, C7 symmetry imposed, combined map at 3.4 Å; 2D class averages show seven-fold symmetry
Details: remark: other sources report otherwise

B1: Human mitochondrial chaperonin mHsp60, P10809 27-573 (natural protein)
chain: AKDVKFGADARALMLQGVDLLADAVAVTMGPKGRTVIIEQSWGSPKVTKDGVTVAKSIDLKDKYKNIGAKLVQDVANNTNEEAGDGTTTATVLARSIAKEGFEKISKGANPVEIRRGVMLAVDAVIAELKKQSKPVTTPEEIAQVATISANGDKEIGNIISDAMKKVGRKGVITVKDGKTLNDELEIIEGMKFDRGYISPYFINTSKGQKCEFQDAYVLLSEKKISSIQSIVPALEIANAHRKPLVIIAEDVDGEALSTLVLNRLKVGLQVVAVKAPGFGDNRKNQLKDMAIATGGAVFGEEGLTLNLEDVQPHDLGKVGEVIVTKDDAMLLKGKGDKAQIEKRIQEIIEQLDVTTSEYEKEKLNERLAKLSDGVAVLKVGGTSDVEVNEKKDRVTDALNATRAAVEEGIVLGGGCALLRCIPALDSLTPANEDQKIGIEIIKRTLKIPAMTIAKNAGVEGSLIVEKIMQSSSEVGYDAMAGDFVNMVEKGIIDPTKVVRTALLDAAGVASLLTTAEVVVTEIPKEEKDPGMGAMGGMGGGMGGGMF
  stoichiometry N: 7
